For one assay, the system named is platelet. The assay can be described thus: Effectiveness of PTH derivative, daily administration to mouse. The class given is in vivo. The following applies: C57B1/6N mice, 200 μg/kg subcutaneously once a day for six days, blood 24 h after final administration. On the procedure: Effectiveness of PTH Derivative
Ten-week old male C57B1/6N mice as purchased from Japan Charles River Co., Ltd. were used in the experiment.
Drug solutions to be administered were prepared basically from human PTH(1-84) and human PTH(1-34) by the same procedure as in Example 1 to give a drug concentration of 20 μg/mL.
Eighteen mice were divided into three groups, which were administered subcutaneously with the two drug solutions and a control (citrate buffer) for six days on a once-a-day basis in a volume of 10 mL/kg. […] The administration was initiated at 10 a.m.
After 24 h of the final administration, a blood sample was withdrawn from each mouse through the orbital vein. Peripheral corpuscle counts were obtained with an automatic corpuscle counter F-800 (TOA MEDICAL ELECTRONICS CO., LTD).

In assay [1] the test system is platelet counts. In words: Test for single-dose administration to mouse (platelet increasing action). The class given is in vivo. The following applies: C57B1/6N mice, 10 μg/kg single dose through the tail vein. As to the method: Test for Single-Dose Administration to Mouse
Nine-week old male C57B1/6N mice as purchased from Japan Charles River Co. Ltd. were used in the experiment.
Human PTH(1-84) was dissolved in a citrate buffer (pH 5; containing 0.05% of Tween 80) at final concentrations of 1, 0.2 and 0.04 ˜g/mL so as to prepare the drug solutions to be administered.
Each of the thus prepared drug solutions and a control (citrate buffer) was administered to 15 mice through the tail vein in a volume of 10 mL/kg. […] The administration was initiated at 10 a.m.
After 3, 6 and 9 hours of the administration, five mice were picked up at random from each group of animals and blood samples were withdrawn through the orbital vein. At 10 a.m. on the same day, separate blood samples were taken from untreated mice (four in number) to obtain the preadministration value. Peripheral corpuscle counts were obtained with an automatic corpuscle counter F-800 (TOA MEDICAL ELECTRONICS CO., LTD.).

For another assay, the system named is platelet count. In words: Test for daily administration to mouse (platelet increasing action). The class given is in vivo. The following applies: C57B1/6N mice; for platelet count: day 5. On the procedure: Test for Daily Administration to Mouse
Nine-week old male C57B1/6N mice as purchased from Japan Charles River Co., Ltd. were used in the experiment.
Drug solutions to be administered were prepared basically by the same procedure as in Example 1 to give drug concentrations of 5, 20 and 80 μg/mL.
The mice under test were divided into four groups, which were administered subcutaneously with the three drug solutions and a control (citrate buffer) once a day in a volume of 10 mL/kg. […] The administration was initiated at 10 a.m.
On days 5, 7 and 9 after the start of administration, five or six mice were picked up at random from each group of animals and blood samples were withdrawn through the orbital vein. The sampling of blood was timed to occur 24 h of the final administration. Separate blood samples were taken from untreated mice (five in number) to obtain the value for normal mouse. Peripheral corpuscle counts were obtained with an automatic corpuscle counter F-800 (TOA MEDICAL ELECTRONICS CO., LTD.).

Assay [2] deals with platelet counts. The assay can be described thus: Test for daily administration to rabbit (platelet increasing action). The class given is in vivo. The following applies: rabbits, 200 μg/kg subcutaneously daily. As to the method: Test for Daily Administration to Rabbit
Six 12-15 week old male Japanese albino rabbits JW/CSK were used in the experiment. The animals were individually kept in aluminum rabbit bracket cages Rb-1 (350^w×500^d×350^h mm) in a vavarium in a specific pathogen-free environment under the following conditions: temperature, 24±2° C.; humidity, 50±10%; illumination, light turned on at 5:00 and turned off at 19:00; ventilation, 15 changes/hr. Each animal was supplied with 120 g of a radiation-sterilized feed for rabbits RM (purchased from Funahashi Farm) per day. The animals were also allowed to drink to tap water ad libitum from an automatic water feeder.
Human PTH(1-84) was administered in a volume of 2 mL/vial at a concentration of 200 μg/mL. A solvent was also supplied in a volume of 2 mL/vial. Both the drug and the control were stored at −135° C. until use.
PTH (200 μg/kg) was administered to the rabbits subcutaneously at the back of their neck for 13 consecutive days. The solvent was similarly administered in the same volume as the dose of a rh-PTH solution calculated from their body weight.
Blood samples (0.5 mL) were withdrawn from the rabbits through the lateral auricular vein before the administration and on days 2, 6, 9 and 13 during the administration period. […]

For assay [3], the system named is BFU-E (precursor cells of erythrocytes). The following applies: report by Meytes et al, J. Clin. Invest. 1981; cited from earlier work.
Assay [4] deals with CFU-GM (precursor cells of granulocytes and macrophages). The following applies: report by Meytes et al, J. Clin. Invest. 1981; cited from earlier work.

On to “human PTH(1-34) (SVSEIQLMHNLGKHLNSMERVEWLRKKLQDVHNF; Parathyroid hormone; UniProt P01270 32-65, looked up, fragment) [PTH(134), partial peptide of PTH composed of 34 amino acids as counted from the N terminus; purchased from Peptide Institute, Inc, reference compound]”, for which the platelet increasing action result with platelet is on record as “comparable platelet increasing action to PTH(1-84)”.

B1: human PTH(1-84) (protein, UniProt P01270 32-115, looked up)
Parathyroid hormone: SVSEIQLMHNLGKHLNSMERVEWLRKKLQDVHNFVALGAPLAPRDAGSQRPRKKEDNVLVESHEKSLGEADKADVNVLTKAKSQ
modifications: Parathyroid hormone
As for B1, the “platelet counts over the control” value in the assay on platelet counts [1] (6 h after the administration) and with platelet counts [1] (9 h after the administration) was “significant increase” each time. Also, the platelet count result with platelet count (200 μg/kg subcutaneously once a day) and in the assay on platelet count (800 μg/kg subcutaneously once a day) was “tendency to increase” in each case. The “platelet count vs the control” value in the assay with platelet count (all treated groups (50, 200 and 800 μg/kg subcutaneously once a day), day 7) is on record as “significantly higher”. The platelet increasing action result in the assay on platelet is “platelet increasing action”. Moreover, in the assay with platelet counts [2] (day 13), the “platelet count relative to the initial level” value is “substantially returned to the initial level”. Moreover, the “platelet count relative to the initial value” in the assay with platelet counts [2] (increase from day 2 until day 6) is “two to four”. Further, the “in vitro colony formation by BFU-E” value in assay [3] is “interfered”. For the same molecule, the “in vitro colony formation by CFU-GM” value in assay [4] is recorded as “interfered”.

The record behind these values is US7268110B2, “Agents for preventing and treating thrombocytopenia” (Chugai Seiyaku Kabushiki Kaisha, priority 1996, dated 2007).
